Molecular target: T1, t-SNARE (syntaxin1a/SNAP25) (UniProt P32851 1-288; P60879 1-206)
T1 construct: syntaxin1a; SNAP25; also called t-SNARE complexes; synaptic t-SNAREs
Assay: MST; t-SNARE or assembled SNARE complex titrated in solution, up to ∼150 μM t-SNARE and ∼60 μM SNARE complex; binding not saturated; soluble conditions; Syt1 tested likewise
Settings: both partners purified

T1 sequence (P32851 whole entry, chain 1 of 2): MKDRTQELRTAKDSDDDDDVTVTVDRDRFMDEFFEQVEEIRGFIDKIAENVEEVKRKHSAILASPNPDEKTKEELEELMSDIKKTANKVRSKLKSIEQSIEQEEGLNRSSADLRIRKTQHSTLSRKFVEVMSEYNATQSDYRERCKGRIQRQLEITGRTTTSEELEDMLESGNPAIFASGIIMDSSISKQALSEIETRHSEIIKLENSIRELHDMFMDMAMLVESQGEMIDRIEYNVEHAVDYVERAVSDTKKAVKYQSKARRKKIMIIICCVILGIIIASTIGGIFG
T1 sequence (P60879 whole entry, chain 2 of 2): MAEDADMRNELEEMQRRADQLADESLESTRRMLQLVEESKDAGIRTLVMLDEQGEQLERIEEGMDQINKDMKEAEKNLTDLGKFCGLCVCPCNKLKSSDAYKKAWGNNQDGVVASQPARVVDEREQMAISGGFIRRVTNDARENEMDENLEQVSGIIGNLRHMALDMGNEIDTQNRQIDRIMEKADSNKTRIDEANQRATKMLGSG

Kd: ≥ 50 µM
B1: proline-rich transmembrane protein 2 (PRRT2), full-length, wild type (natural protein, human, UniProt Q7Z6L0 1-340, looked up)
chain: MAASSSEISEMKGVEESPKVPGEGPGHSEAETGPPQVLAGVPDQPEAPQPGPNTTAAPVDSGPKAGLAPETTETPAGASETAQATDLSLSPGGESKANCSPEDPCQETVSKPEVSKEATADQGSRLESAAPPEPAPEPAPQPDPRPDSQPTPKPALQPELPTQEDPTPEILSESVGEKQENGAVVPLQAGDGEEGPAPEPHSPPSKKSPPANGAPPRVLQQLVEEDRMRRAHSGHPGSPRGSLSRHPSSQLAGPGVEGGEGTQKPRDYIILAILSCFCPMWPVNIVAFAYAVMSRNSLQQGDVDGAQRLGRVAKLLSIVALVGGVLIIIASCVINLGVYK
notes: PRRT2, human, full length, cloned into pGEX6p-1; In the fusion, docking and FRET assays it was reconstituted into liposomes; also called purified PRRT2; recombinant PRRT2; source: E. coli Rosetta2(DE3), purified (glutathione agarose, cleaved off the resin with PreScission Protease)

— article PMC5792450, “PRRT2 Regulates Synaptic Fusion by Directly Modulating SNARE Complex Assembly” (Cell Reports, 2018)
